This passage reports BRET50 results from paper PMC2474558 (Biochemical Journal, 2008).

This test concerns the target hDOP–Renilla luciferase (human, UniProt P41143 1-372). As to the kind of experiment: FRET or BRET. For orientation: BRET reads energy transfer from a luciferase to a nearby fluorophore.

Chain of hDOP–Renilla luciferase (P41143 whole entry): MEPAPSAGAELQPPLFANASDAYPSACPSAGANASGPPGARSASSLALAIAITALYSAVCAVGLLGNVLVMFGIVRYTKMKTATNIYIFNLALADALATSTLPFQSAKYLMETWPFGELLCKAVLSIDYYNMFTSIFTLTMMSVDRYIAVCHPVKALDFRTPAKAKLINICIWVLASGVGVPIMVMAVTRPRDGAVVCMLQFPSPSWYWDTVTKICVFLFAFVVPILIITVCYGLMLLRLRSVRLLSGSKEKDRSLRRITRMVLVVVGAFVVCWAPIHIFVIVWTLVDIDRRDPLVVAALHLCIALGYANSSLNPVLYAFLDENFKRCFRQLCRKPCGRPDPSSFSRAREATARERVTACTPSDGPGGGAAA

B1: hCXCR2–GFP^2 (receptor)
chain: MEDFNMESDSFEDFWKGEDLSNYSYSSTLPPFLLDAAPCEPESLEINKYFVVIIYALVFLLSLLGNSLVMLVILYSRVGRSVTDVYLLNLALADLLFALTLPIWAASKVNGWIFGTFLCKVVSLLKEVNFYSGILLLACISVDRYLAIVHATRTLTQKRYLVKFICLSIWGLSLLLALPVLLFRRTVYSSNVSPACYEDMGNNTANWRMLLRILPQSFGFIVPLLIMLFCYGFTLRTLFKAHMGQKHRAMRVIFAVVLIFLLCWLPYNLVLLADTLMRTQVIQETCERRNHIDRALDATEILGILHSCLNPLIYAFIGQKFRHGLLKILAIHGLISKDSLPKDSRPSFVGSSSGHTSTTL
As to B1, the BRET50 was 0.34 ± 0.02 [acceptor] to [donor] ratio.
